Experiment [1] addresses human single-chain pro-u-PA (human) (UniProt P00749).
In experiment [2] the target is u-PA bound to u-PAR on the cell surface (human) (UniProt P00749). As to the kind of experiment: association rate constant from inhibition kinetics of plasminogen activation by u-PAR-bound u-PA on PMA-stimulated U937 cells.
For experiment [3] the target is unchanged. As to the kind of experiment: inhibition kinetics, u-PAR-bound u-PA on PMA-stimulated U937 cells against u-PA in solution.
The target is the same in experiment [4]. Nature of the experiment: inhibition kinetics, u-PAR-bound u-PA on U937 cells against u-PA in solution.
Experiment [5] has the same target. As to the kind of experiment: association rate constant from inhibition kinetics of plasminogen activation by u-PAR-bound u-PA on U937 cells.
For experiment [6], the target named is human urokinase-type plasminogen activator, active two-chain 54 kD form (human) (UniProt P00749).
The target in experiment [7] is u-PA bound to u-PAR on the cell surface (human) (UniProt P00749).

plasminogen activator inhibitor type 2, sequence (P05120 whole entry): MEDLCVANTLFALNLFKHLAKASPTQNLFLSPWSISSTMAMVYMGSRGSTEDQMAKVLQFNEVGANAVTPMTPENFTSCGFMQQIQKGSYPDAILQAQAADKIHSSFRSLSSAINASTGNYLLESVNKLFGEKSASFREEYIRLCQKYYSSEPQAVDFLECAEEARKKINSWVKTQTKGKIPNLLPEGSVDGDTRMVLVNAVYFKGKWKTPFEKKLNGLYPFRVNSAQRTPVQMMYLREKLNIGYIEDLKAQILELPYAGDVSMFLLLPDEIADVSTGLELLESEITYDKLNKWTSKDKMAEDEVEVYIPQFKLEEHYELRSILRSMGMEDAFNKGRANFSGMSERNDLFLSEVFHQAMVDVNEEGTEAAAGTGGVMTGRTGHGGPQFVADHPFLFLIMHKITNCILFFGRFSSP
human plasmin, sequence (P00747 97-810 limits assumed): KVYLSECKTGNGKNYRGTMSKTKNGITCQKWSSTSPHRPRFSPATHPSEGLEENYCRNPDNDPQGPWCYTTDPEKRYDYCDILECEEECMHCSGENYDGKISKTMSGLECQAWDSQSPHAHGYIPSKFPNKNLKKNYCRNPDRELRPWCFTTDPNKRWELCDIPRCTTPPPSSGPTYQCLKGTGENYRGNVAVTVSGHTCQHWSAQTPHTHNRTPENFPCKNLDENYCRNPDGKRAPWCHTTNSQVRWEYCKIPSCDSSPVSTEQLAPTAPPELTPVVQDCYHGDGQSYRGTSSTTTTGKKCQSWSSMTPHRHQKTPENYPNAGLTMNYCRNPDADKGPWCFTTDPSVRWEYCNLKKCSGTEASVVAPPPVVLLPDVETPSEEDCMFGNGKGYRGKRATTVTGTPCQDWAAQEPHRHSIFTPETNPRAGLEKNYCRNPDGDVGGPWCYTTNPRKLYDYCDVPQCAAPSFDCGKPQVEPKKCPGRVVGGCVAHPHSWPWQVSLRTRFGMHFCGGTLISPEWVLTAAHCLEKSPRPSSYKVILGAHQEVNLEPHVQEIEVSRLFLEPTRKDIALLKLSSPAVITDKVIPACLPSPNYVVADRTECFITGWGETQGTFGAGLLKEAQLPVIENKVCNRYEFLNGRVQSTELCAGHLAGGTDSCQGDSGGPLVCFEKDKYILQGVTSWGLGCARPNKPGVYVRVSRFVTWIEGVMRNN

Take “human plasmin (from UniProt P00747) (enzyme)”: the generation of u-PA amidolytic activity from pro-u-PA (ng/ml equivalent two-chain u-PA per min) in experiment [1] is 0.6.
Broadly, the kon is a measure of how fast the partners come together. Consider “plasminogen activator inhibitor type 1 (from UniProt P05121)”, for which the kon in experiment [2] was 1.7e+06 M⁻¹ s⁻¹; in experiment [5], 4.5e+06 M⁻¹ s⁻¹. The rate of inhibition relative to u-PA in solution worked out at 20% in experiment [3] and 60% in experiment [4].
In the case of “plasminogen activator inhibitor type 2 (from UniProt P05120)”, the Bound plasmin activity (%) at 3 h and 17 h; u-PA activity in medium (%) in experiment [6] came out at 48%. Moreover, the values for the kon in experiment [2] and in experiment [5] were 110000 M⁻¹ s⁻¹ and 330000 M⁻¹ s⁻¹, respectively. Moreover, in experiment [4], the association-rate constant relative to u-PA in solution turned out to be 60%. The same substance returned a Bound plasmin activity (%) after preincubation of the cells and washing in experiment [7] of 54%.

The values are drawn from patent US6248712.
